Data published in patent US20240317859A1 (FOUNDATION FOR BIOMEDICAL RESEARCH AND INNOVATION AT KOBE, published 2024).
Where two headings read alike, the source gives them in different places.

B1: HM297-I6 (antibody, human IgG1, V domains shown)
VH: QVQLVQSGPEVKKPGASVKVVCKASGYTFTDYNVDWVRQVPGQGLEWMGDIDPNNGGTIYNQKFKDRVTMTVDTSTRTAYMELRSLRSDDTAVYYCARWRGAMDYWGQGTLVTVSS
VL: DIQMTQSPSSLSASVGDRVTITCRASQDIDNYLKWYQQKPGKAPKLLIYDTSRLHSGVPSRFSGSGSGTDYTLTISSLQPEDFATYYCQQGYTLPWTFGQGTKLEIK
notes: also called humanized HM297, VH ver.I / VL ver.6
B2: HM242-C1 (antibody, human IgG1, V domains shown)
VH: QVQLVQSGPEVKKPGASVKVVCKASGYTFTSYYIQWVKQRPGQGLEWIGWIYPGDGTTKYNEKFKGRVTMTIDKSTRTAYMELRSLRSDDTAVYYCASYYGSYFDYWGQGTLVTVSS
VL: DIQMTQTTSSLSASVGDRVTITCRASQDISNYLNWYQQKPDGTVTLLIYYTSKLHSGVPSRFSGSGSGTDYTLTISSLEQKDFATYYCQQSSTLPFTFGQGTKLEIK
notes: also called humanized HM242, VH ver.C / VL ver.1
B3: HM242-D1 (antibody, human IgG1, V domains shown)
VH: QVQLVQSGPEVKKPGASVKVVCKASGYTFTSYYIQWVRQVPGQGLEWMGWIYPGDGTTKYNEKFKGRVTMTIDTSTSTAYMELRSLRSDDTAVYYCASYYGSYFDYWGQGTLVTVSS
VL: DIQMTQTTSSLSASVGDRVTITCRASQDISNYLNWYQQKPDGTVTLLIYYTSKLHSGVPSRFSGSGSGTDYTLTISSLEQKDFATYYCQQSSTLPFTFGQGTKLEIK
notes: also called humanized HM242, VH ver.D / VL ver.1
B4: HM242-B3 (antibody, human IgG1, V domains shown)
VH: QVQLVQSGPEVKKPGASVKVVCKASGYTFTSYYIQWVRQVPGQGLEWMGWIYPGDGTTKYNEKFKGKTTLTIDKSTRTAYMELRSLRSDDTAVYYCASYYGSYFDYWGQGTLVTVSS
VL: DIQMTQSPSSLSASVGDRVTITCRASQDISNYLNWYQQKPGKAPKLLIYYTSKLHSGVPSRFSGSGSGTDYTLTISSLQPEDFATYYCQQSSTLPFTFGQGTKLEIK
notes: also called humanized HM242, VH ver.B / VL ver.3
B5: HM242-B2 (antibody, human IgG1, V domains shown)
VH: QVQLVQSGPEVKKPGASVKVVCKASGYTFTSYYIQWVRQVPGQGLEWMGWIYPGDGTTKYNEKFKGKTTLTIDKSTRTAYMELRSLRSDDTAVYYCASYYGSYFDYWGQGTLVTVSS
VL: DIQMTQSPSSLSASVGDRVTITCRASQDISNYLNWYQQKPDGTVTLLIYYTSKLHSGVPSRFSGSGSGTDYTLTISSLQPEDFATYYCQQSSTLPFTFGQGTKLEIK
notes: also called humanized HM242, VH ver.B / VL ver.2
B6: HM242-A2 (antibody, human IgG1, V domains shown)
VH: QVQLVQSGPELVKPGASVKVVCKASGYTFTSYYIQWVKQRPGQGLEWIGWIYPGDGTTKYNEKFKGKTTLTIDKSTRTAYMELRSLRSDDTAVYYCASYYGSYFDYWGQGTLVTVSS
VL: DIQMTQSPSSLSASVGDRVTITCRASQDISNYLNWYQQKPDGTVTLLIYYTSKLHSGVPSRFSGSGSGTDYTLTISSLQPEDFATYYCQQSSTLPFTFGQGTKLEIK
notes: also called humanized HM242, VH ver.A / VL ver.2
B7: HM242-B1 (antibody, human IgG1, V domains shown)
VH: QVQLVQSGPEVKKPGASVKVVCKASGYTFTSYYIQWVRQVPGQGLEWMGWIYPGDGTTKYNEKFKGKTTLTIDKSTRTAYMELRSLRSDDTAVYYCASYYGSYFDYWGQGTLVTVSS
VL: DIQMTQTTSSLSASVGDRVTITCRASQDISNYLNWYQQKPDGTVTLLIYYTSKLHSGVPSRFSGSGSGTDYTLTISSLEQKDFATYYCQQSSTLPFTFGQGTKLEIK
notes: also called humanized HM242, VH ver.B / VL ver.1
B8: HM242-A1 (antibody, human IgG1, V domains shown)
VH: QVQLVQSGPELVKPGASVKVVCKASGYTFTSYYIQWVKQRPGQGLEWIGWIYPGDGTTKYNEKFKGKTTLTIDKSTRTAYMELRSLRSDDTAVYYCASYYGSYFDYWGQGTLVTVSS
VL: DIQMTQTTSSLSASVGDRVTITCRASQDISNYLNWYQQKPDGTVTLLIYYTSKLHSGVPSRFSGSGSGTDYTLTISSLEQKDFATYYCQQSSTLPFTFGQGTKLEIK
notes: also called humanized HM242, VH ver.A / VL ver.1
B9: HM268-M8 (antibody, human IgG1, V domains shown)
VH: QVQLVQSGPEVKKPGASVKVVCKASGYTFTSYYIQWVRQVPGQGLEWMGWIYFGDASTKYNEKFKGRVTMTADTSTSTAYMELRSLRSDDTAVYYCASYYGSYFDYWGQGTTVTVSS
VL: DIQMTQSPSSLSASVGDRVTITCRASQDISNYLNWYQQKPDGTVKLLIYSTSRLHSGVPSRFSGSGSGTDYTLTISSLQPEDFATYYCQQGSTLPFTFGQGTKLEIK
notes: also called humanized HM268, VH ver.M / VL ver.8
B10: HM242-A3 (antibody, human IgG1, V domains shown)
VH: QVQLVQSGPELVKPGASVKVVCKASGYTFTSYYIQWVKQRPGQGLEWIGWIYPGDGTTKYNEKFKGKTTLTIDKSTRTAYMELRSLRSDDTAVYYCASYYGSYFDYWGQGTLVTVSS
VL: DIQMTQSPSSLSASVGDRVTITCRASQDISNYLNWYQQKPGKAPKLLIYYTSKLHSGVPSRFSGSGSGTDYTLTISSLQPEDFATYYCQQSSTLPFTFGQGTKLEIK
notes: also called humanized HM242, VH ver.A / VL ver.3
B11: HM242-C2 (antibody, human IgG1, V domains shown)
VH: QVQLVQSGPEVKKPGASVKVVCKASGYTFTSYYIQWVKQRPGQGLEWIGWIYPGDGTTKYNEKFKGRVTMTIDKSTRTAYMELRSLRSDDTAVYYCASYYGSYFDYWGQGTLVTVSS
VL: DIQMTQSPSSLSASVGDRVTITCRASQDISNYLNWYQQKPDGTVTLLIYYTSKLHSGVPSRFSGSGSGTDYTLTISSLQPEDFATYYCQQSSTLPFTFGQGTKLEIK
notes: also called humanized HM242, VH ver.C / VL ver.2
B12: humanized HM242-C3-IgG1-K322A (antibody, V domains shown)
VH: QVQLVQSGPEVKKPGASVKVVCKASGYTFTSYYIQWVKQRPGQGLEWIGWIYPGDGTTKYNEKFKGRVTMTIDKSTRTAYMELRSLRSDDTAVYYCASYYGSYFDYWGQGTLVTVSS
VL: DIQMTQSPSSLSASVGDRVTITCRASQDISNYLNWYQQKPGKAPKLLIYYTSKLHSGVPSRFSGSGSGTDYTLTISSLQPEDFATYYCQQSSTLPFTFGQGTKLEIKR
B13: humanized HM242-D3-IgG1-K322A (antibody, V domains shown)
VH: QVQLVQSGPEVKKPGASVKVVCKASGYTFTSYYIQWVRQVPGQGLEWMGWIYPGDGTTKYNEKFKGRVTMTIDTSTSTAYMELRSLRSDDTAVYYCASYYGSYFDYWGQGTLVTVSS
VL: DIQMTQSPSSLSASVGDRVTITCRASQDISNYLNWYQQKPGKAPKLLIYYTSKLHSGVPSRFSGSGSGTDYTLTISSLQPEDFATYYCQQSSTLPFTFGQGTKLEIKR
B14: HM268-J7 (antibody, human IgG1, V domains shown)
VH: QVQLVQSGPEVKKPGASVKVVCKTSGYTFTSYYIQWVRQVPGQGLEWMGWIYFGDASTKYNEKFKGKTTLTADKSTSTAYMELRSLRSDDTAVYYCASYYGSYFDYWGQGTTVTVSS
VL: DIQMTQNTSSLSASVGDRVTITCRASQDISNYLNWYQQKPDGTVKLLIYSTSRLHSGVPSRFSGSGSGTDYTLTISSLEQEDFATYYCQQGSTLPFTFGQGTKLEIK
notes: also called humanized HM268, VH ver.J / VL ver.7
B15: HM268-J9 (antibody, human IgG1, V domains shown)
VH: QVQLVQSGPEVKKPGASVKVVCKTSGYTFTSYYIQWVRQVPGQGLEWMGWIYFGDASTKYNEKFKGKTTLTADKSTSTAYMELRSLRSDDTAVYYCASYYGSYFDYWGQGTTVTVSS
VL: DIQMTQSPSSLSASVGDRVTITCRASQDISNYLNWYQQKPGKAPKLLIYSTSRLHSGVPSRFSGSGSGTDYTLTISSLQPEDFATYYCQQGSTLPFTFGQGTKLEIK
notes: also called humanized HM268, VH ver.J / VL ver.9
B16: HM268-J8 (antibody, human IgG1, V domains shown)
VH: QVQLVQSGPEVKKPGASVKVVCKTSGYTFTSYYIQWVRQVPGQGLEWMGWIYFGDASTKYNEKFKGKTTLTADKSTSTAYMELRSLRSDDTAVYYCASYYGSYFDYWGQGTTVTVSS
VL: DIQMTQSPSSLSASVGDRVTITCRASQDISNYLNWYQQKPDGTVKLLIYSTSRLHSGVPSRFSGSGSGTDYTLTISSLQPEDFATYYCQQGSTLPFTFGQGTKLEIK
notes: also called humanized HM268, VH ver.J / VL ver.8
B17: HM242-D2 (antibody, human IgG1, V domains shown)
VH: QVQLVQSGPEVKKPGASVKVVCKASGYTFTSYYIQWVRQVPGQGLEWMGWIYPGDGTTKYNEKFKGRVTMTIDTSTSTAYMELRSLRSDDTAVYYCASYYGSYFDYWGQGTLVTVSS
VL: DIQMTQSPSSLSASVGDRVTITCRASQDISNYLNWYQQKPDGTVTLLIYYTSKLHSGVPSRFSGSGSGTDYTLTISSLQPEDFATYYCQQSSTLPFTFGQGTKLEIK
notes: also called humanized HM242, VH ver.D / VL ver.2
B18: chimeric HM242-IgG1-K322A (antibody)
heavy: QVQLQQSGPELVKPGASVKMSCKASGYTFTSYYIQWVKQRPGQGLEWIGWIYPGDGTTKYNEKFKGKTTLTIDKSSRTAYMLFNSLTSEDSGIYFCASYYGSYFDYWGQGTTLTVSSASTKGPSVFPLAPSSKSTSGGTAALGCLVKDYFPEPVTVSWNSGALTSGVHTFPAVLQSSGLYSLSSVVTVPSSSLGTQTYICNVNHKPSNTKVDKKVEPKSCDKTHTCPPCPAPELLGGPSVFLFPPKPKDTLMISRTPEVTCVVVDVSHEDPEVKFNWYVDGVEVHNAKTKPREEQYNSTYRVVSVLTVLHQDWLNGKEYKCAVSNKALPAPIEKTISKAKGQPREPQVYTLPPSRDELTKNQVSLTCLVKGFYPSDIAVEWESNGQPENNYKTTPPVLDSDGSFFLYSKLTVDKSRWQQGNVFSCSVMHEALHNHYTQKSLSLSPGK
light: DIQMTQTTSSLSASLGDRVTISCRASQDISNYLNWYQQKPDGTVTLLIYYTSKLHSGVPSRFSGSGSGTDYSLTITNLEQKDFATYFCQQSSTLPFTFGGGTKLEIKRTVAAPSVFIFPPSDEQLKSGTASVVCLLNNFYPREAKVQWKVDNALQSGNSQESVTEQDSKDSTYSLSSTLTLSKADYEKHKVYACEVTHQGLSSPVTKSFNRGEC
notes: Mouse Fab region with the Fc region of human IgG1-K322A

Experiments:
[1] = molecular target: Human PD-1/PDCD1 Protein (PD-1) (human, UniProt Q15116 25-167, limits assumed); test: SPR, Biacore 8K; PD-1 captured by anti-His antibody, antibody in flow
Method: The binding affinity of each antibody to human PD-1 was measured with Biacore 8K (Cytiva). Briefly, anti-His Tag antibody was immobilized by amine coupling using Amine Coupling Kit and His Capture Kit, onto 8 channels of a sensor chip (provided with 16 flow cells; one channel consisting of two flow cells) which had carboxymethyl dextran immobilized on a gold film. The immobilization was performed by feeding an activation solution (NHS and EDC mixed in equal amounts) at a flow rate of 10 μl/min for 7 minutes, an immobilization solution at a flow rate of 5 μl/min for 7 minutes, and 1 M ethanolamine hydrochloride-NaOH (pH 8.5) at a flow rate of 10 μl/min for 7 minutes. The buffer used at the time of immobilization was 1×HBS-EP+ Buffer. After the immobilization and before applying a sample, Human PD-1/PDCD1 Protein (PD-1) adjusted to 1 μg/ml with 1×HBS-EP+ Buffer was fed to one of the two flow cells of each channel in an amount of 20 μl at a flow rate of 10 μl/min to thereby capture PD-1 on the sensor chip. As regards the other flow cell, 1×HBS-EP+ Buffer was fed in the same manner to prepare a control flow cell. Each antibody was adjusted to 16 nM with 1×HBS-EP+ Buffer, and then subjected to 2-fold 7-step serial dilution using 1×HBS-EP+ Buffer. The resultant sample solution (30 μl) was fed to each flow cell at a flow rate of 10 μl/min and the response was measured. After subtracting the response of control flow cell from the response of the flow cell which was allowed to capture the ligand, KD value was calculated by curve fitting using Biacore 8K Evaluation Software.

[2] = molecular target: T1, human PD-1 (wild-type), expressed on cells (human, UniProt Q15116 25-288); test: cell-based or functional assay
[3] = molecular target: T1, human PD-1 (wild-type), expressed on …; test: cell-based or functional assay; remark: listed apart in the source
[4] = molecular target: T1, human PD-1 (wild-type), expressed on …; test: cell-based or functional assay; remark: listed apart in the source

T1 sequence (Q15116 25-288 limits assumed): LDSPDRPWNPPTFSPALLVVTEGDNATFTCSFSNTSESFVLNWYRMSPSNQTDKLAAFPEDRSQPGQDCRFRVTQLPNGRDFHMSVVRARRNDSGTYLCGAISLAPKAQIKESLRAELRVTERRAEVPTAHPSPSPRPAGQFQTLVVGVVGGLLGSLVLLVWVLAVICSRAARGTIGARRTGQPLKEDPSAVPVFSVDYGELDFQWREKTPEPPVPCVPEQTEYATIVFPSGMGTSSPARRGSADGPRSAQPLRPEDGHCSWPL

| Kd [1] [nM] | Cell-cell contact assay [2] [ng/mL] | Cell-cell contact assay [3] [ng/mL] | Cell-cell contact assay [4] [ng/mL] | Binder |
| --- | --- | --- | --- | --- |
| 3.48 | 137 | – | – | B1 |
| < 0.0179 | – | 19 | – | B2 |
| 0.103 | – | 24.8 | – | B3 |
| < 0.0307 | – | 20.8 | – | B4 |
| < 0.0315 | – | 8.83 | – | B5 |
| < 0.0408 | – | 16.7 | – | B6 |
| < 0.0448 | – | 7.15 | – | B7 |
| < 0.0356 | – | 13.1 | – | B8 |
| 0.00359 | – | – | 75.8 | B9 |
| < 0.0217 | – | 18.8 | – | B10 |
| < 0.0211 | – | 18.1 | – | B11 |
| < 0.0186 | – | 23.7 | – | B12 |
| < 0.0492 | – | 31.5 | – | B13 |
| 0.00482 | – | – | 70.9 | B14 |
| 0.0252 | – | – | 301 | B15 |
| < 0.00284 | – | – | 63.1 | B16 |
| < 0.0603 | – | 33.3 | – | B17 |
| < 0.051 | – | 13.7 | – | B18 |
